Earlier results as cited in publication PMC3103538.

Experiments:
Asp7 = Asp7 (UniProt position 255, MKQLEDKVEEL)
Nterm0 = Nterm0 (UniProt position 248, RARKLQRMKQL)
Tyr17 = Tyr17 (UniProt position 265, LLSKNYHLENE)
Lys27 = Lys27 (UniProt position 275, EVARLKKLVGE)
Lys3 = Lys3 (UniProt position 251, KLQSMKQLEDK)
Glu22 = Glu22 (UniProt position 270, YHLENEVARLK)
Lys15 = Lys15 (UniProt position 263, EELLSKNYHLE)
Glu11 = Glu11 (UniProt position 259, EDKVEELLSKN)
Glu32 = Glu32 (UniProt position 280, KKLVGER----)
Glu10 = Glu10 (UniProt position 258, LEDKVEELLSK)
Glu6 = Glu6 (UniProt position 254, SMKQLEDKVEE)
His18 = His18 (UniProt position 266, LSKNYHLENEV)
Lys8 = Lys8 (UniProt position 256, KQLEDKVEELL)
Glu20 = Glu20 (UniProt position 268, KNYHLENEVAR)
Lys28 = Lys28 (UniProt position 276, VARLKKLVGER)
Cterm32 = Cterm32 (UniProt position 280, KKLVGER----)

Substance: GCN4 leucine zipper (33-residue fragment, GCN4p1-type) (Saccharomyces cerevisiae; R1S; insertion of Gly0 before residue 1 (Arg1 substituted by the dipeptide Gly0-Ser1))
- pKa (Asp7): 3.48
- pKa (Nterm0): 7.88
- pKa (Tyr17): 9.82
- pKa (Lys27): 11.1
- pKa (Lys3): 10.78
- pKa (Glu22): 4.2
- pKa (Lys15): 10.62
- pKa (Glu11): 4.05
- pKa (Glu32): 4.62
- pKa (Glu10): 3.94
- pKa (Glu6): 4.6
- pKa (His18): 6.24
- pKa (Lys8): 11.26
- pKa (Glu20): 4.38
- pKa (Lys28): 10.64
- pKa (Cterm32): 4.03
